Where a chain is given by its changes, count along the chain named. One block for each binder: values may come before it.
What was measured:
[1] = target: T1, IGF-1R on NCI-H322 cells (UniProt P08069 31-1367, limits assumed); assay: cell-based or functional assay
[2] = target: T1, IGF-1R on NCI-H322 cells; assay: cell-based or functional assay; remark: listed apart in the source
[3] = target: T2, Human IGF-I R (Glu 31-Asn 932 with a polyhistidine tag at the C-terminus) (human, UniProt P08069 31-932); assay: BLI (Octet RED96e), His-tagged IGF-1R on Ni-NTA sensors, Fab 0-100 nM, 1:1 global fit
T2 construct: range 31-932; Bought protein; captured on Ni-NTA biosensors for BLI; also called IGF1R; IGF-1R; not shown: C-terminal polyhistidine tag
Source text: Human IGF-I R (Glu 31-Asn 932 with a polyhistidine tag at the C-terminus) expressed from human 293 cells (HEK293) was purchased from ACROBiosystems (Newark, DE). Dip and Read Ni-NTA (NTA) Biosensors from Sartorius (Bohemia, NY) pre-immobilized with nickel-charged Tris-NTA, were enabled for kinetic characterization of novel anti-human IGF-I R antibodies. Briefly, antibody variants were digested into purified Fab fragments (to enable 1:1 binding and global fitting). The Fab[…] Fab kit from GENOVIS (Cambridge, MA) was used to generate a monovalent binding Fab domain of each antibody variant, Fab fragments are subsequently separated from Fc using the CaptureSelect™ Fc column. Binding of variant Fabs to NTA-captured human IGF-I R (His-tagged) was monitored by biolayer interferometry (BLI) on an Octet RED96e (Sartorius). NTA biosensors were charged with 10 mM NiCl2, then loaded with His-tagged human IGF-I R at approximately 5 ug/mL to an average loading response of 0.67 nm shift. Variant Fabs were assayed from 0-100 nM in 10X kinetics buffer (1X PBS, 0.1% BSA, 0.02% Tween-20 plus Kathon as a preservative) from Sartorius. Binding kinetics and affinities were determined using the Octet Analysis Studio Software (Sartorius) by applying a 1:1 global fitting to double-referenced subtracted data.

[4] = target: T3, IGF-1R (coated on Maxisorp plates) (UniProt P08069 31-932, limits assumed); assay: competition ELISA, plate-coated IGF-1R, antibody titrated against 20 ng/mL IGF-1 biotin
T3 construct: also called the receptor
Experimental: (§1) Maxisorp plates were coated with 1.5 ug/mL of IGF-1R overnight at 4° C. Plates were washed and blocked with 1% BSA. Subsequently, serially diluted anti-IGF1R antibodies were incubated for 30 min at room temperature followed by an incubation with a final concentration of 20 ng/mL IGF-1 biotin. Plates were washed and streptavidin-horseradish peroxidase was added. After a final wash, 3,3′,5,5′-Tetramethylbenzidine was added for 8 minutes. The reaction was terminated with a HCL based stop solution. Plates were measured for absorbance at 450 nm, and the data was analyzed using Softmax Pro 7.1 software.

[5] = target: T3, IGF-1R (coated on Maxisorp plates); assay: competition ELISA, plate-coated IGF-1R, antibody titrated against 200 ng/mL IGF-2 biotin
Experimental: as §1, with “of 200” for “of 20”, “ng/mL of IGF-2” for “ng/mL IGF-1”

T1 sequence (P08069 31-1367 limits assumed): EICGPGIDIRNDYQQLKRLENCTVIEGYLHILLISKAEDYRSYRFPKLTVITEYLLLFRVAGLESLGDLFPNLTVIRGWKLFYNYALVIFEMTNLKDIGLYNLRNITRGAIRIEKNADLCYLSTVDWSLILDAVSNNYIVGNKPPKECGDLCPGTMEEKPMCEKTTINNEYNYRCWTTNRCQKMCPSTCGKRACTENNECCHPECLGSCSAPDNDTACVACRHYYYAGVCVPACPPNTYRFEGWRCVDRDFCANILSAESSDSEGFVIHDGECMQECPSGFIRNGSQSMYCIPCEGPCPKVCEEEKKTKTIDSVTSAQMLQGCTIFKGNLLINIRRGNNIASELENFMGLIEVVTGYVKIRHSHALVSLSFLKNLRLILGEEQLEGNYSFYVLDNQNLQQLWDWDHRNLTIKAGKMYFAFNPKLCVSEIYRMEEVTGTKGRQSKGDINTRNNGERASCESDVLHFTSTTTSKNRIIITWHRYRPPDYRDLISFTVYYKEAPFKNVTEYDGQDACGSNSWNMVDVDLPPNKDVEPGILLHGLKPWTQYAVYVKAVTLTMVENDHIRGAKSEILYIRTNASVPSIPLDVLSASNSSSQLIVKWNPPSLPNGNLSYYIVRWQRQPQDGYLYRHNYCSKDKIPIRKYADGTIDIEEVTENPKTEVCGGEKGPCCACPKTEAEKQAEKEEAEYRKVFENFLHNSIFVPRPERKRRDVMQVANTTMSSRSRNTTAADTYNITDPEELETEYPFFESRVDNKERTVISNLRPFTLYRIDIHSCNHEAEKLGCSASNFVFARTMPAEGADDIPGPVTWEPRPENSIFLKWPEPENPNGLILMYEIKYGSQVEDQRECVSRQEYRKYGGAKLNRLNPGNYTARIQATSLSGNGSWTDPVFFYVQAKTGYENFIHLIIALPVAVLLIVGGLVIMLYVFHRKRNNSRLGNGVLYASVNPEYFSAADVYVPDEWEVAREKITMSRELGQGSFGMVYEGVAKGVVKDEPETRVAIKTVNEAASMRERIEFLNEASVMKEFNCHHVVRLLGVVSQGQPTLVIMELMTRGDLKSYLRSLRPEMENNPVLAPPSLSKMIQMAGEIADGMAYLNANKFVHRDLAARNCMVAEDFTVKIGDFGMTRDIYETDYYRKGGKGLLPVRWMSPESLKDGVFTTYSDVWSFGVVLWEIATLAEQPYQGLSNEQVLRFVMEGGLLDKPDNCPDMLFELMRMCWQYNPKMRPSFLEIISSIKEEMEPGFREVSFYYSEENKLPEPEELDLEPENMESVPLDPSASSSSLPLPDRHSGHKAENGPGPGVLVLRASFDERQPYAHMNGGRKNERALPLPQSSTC
T2 sequence (P08069 31-932 limits assumed): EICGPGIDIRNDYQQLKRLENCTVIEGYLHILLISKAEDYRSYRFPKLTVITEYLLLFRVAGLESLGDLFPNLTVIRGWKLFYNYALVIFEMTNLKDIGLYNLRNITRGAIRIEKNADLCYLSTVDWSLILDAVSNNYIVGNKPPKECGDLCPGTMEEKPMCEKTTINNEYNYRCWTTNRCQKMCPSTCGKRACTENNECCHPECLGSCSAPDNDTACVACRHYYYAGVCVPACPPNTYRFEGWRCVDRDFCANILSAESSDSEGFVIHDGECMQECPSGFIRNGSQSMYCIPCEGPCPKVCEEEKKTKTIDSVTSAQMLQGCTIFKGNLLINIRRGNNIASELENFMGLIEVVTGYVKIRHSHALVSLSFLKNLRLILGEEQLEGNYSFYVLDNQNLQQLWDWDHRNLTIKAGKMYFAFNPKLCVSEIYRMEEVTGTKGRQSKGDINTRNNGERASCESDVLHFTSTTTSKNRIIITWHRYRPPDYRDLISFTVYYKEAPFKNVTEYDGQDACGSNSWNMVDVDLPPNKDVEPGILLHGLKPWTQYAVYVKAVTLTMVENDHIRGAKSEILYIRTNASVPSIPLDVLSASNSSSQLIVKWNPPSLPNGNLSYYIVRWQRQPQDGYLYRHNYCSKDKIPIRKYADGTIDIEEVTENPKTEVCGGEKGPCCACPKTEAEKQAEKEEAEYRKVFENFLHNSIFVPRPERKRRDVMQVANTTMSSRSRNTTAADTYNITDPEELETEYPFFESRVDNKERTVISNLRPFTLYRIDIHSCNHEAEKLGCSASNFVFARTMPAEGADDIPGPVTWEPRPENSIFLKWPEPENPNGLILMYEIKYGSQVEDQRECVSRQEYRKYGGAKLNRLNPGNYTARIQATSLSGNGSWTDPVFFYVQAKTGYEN
T3 sequence (P08069 31-932 limits assumed): as above

B1: Teprotumumab reference antibody (antibody, V domains shown)
VH: QVELVESGGGVVQPGRSQRLSCAASGFTFSSYGMHWVRQAPGKGLEWVAIIWFDGSSTYYADSVRGRFTISRDNSKNTLYLQMNSLRAEDTAVYFCARELGRRYFDLWGRGTLVSVSS
VL: EIVLTQSPATLSLSPGERATLSCRASQSVSSYLAWYQQKPGQAPRLLIYDASKRATGIPARFSGSGSGTDFTLTISSLEPEDFAVYYCQQRSKWPPWTFGQGTKVESK
- IC50 of inhibition of IGF-1R phosphorylation [1]: 0.397 µg/mL
- Inhibition of Phosphorylation IC50 [2]: 0.0106 µg/mL

B3: D03-YTE (antibody, V domains shown)
VH: B1 VH with Y32H, I50Y
VL: B1 VL with Y32A, W94Y
- IC50 of inhibition of IGF-1R phosphorylation [1]: 0.0205 µg/mL

B5: E01 Fab (Fab, V domains shown)
VH: B1 VH
VL: B1 VL with W94Y
- Kd [3]: 0.179 nM
- koff [3]: 0.000298 s⁻¹
- kon [3]: 2.66e+06 M⁻¹ s⁻¹

B8: D03 antibody (antibody, V domains shown)
VH: B1 VH with Y32H, I50Y
VL: B1 VL with Y32A, W94Y
notes: Whole antibody; also called clone D03
- IC50 [4]: 0.388 µg/mL
- IC50 [5]: 0.161 µg/mL
- Inhibition of Phosphorylation IC50 [2]: 0.0049 µg/mL

B10: F02 Fab (Fab, V domains shown)
VH: B1 VH with Y32H, I50T
VL: B1 VL with Y32T, W94Y
- Kd [3]: 1.92 nM
- koff [3]: 0.0023 s⁻¹
- kon [3]: 1.2e+06 M⁻¹ s⁻¹

B11: B02 Fab (Fab, V domains shown)
VH: B1 VH with Y32T, I50Y, G101N
VL: B1 VL with W94Y
- Kd [3]: 1.54 nM
- koff [3]: 0.00125 s⁻¹
- kon [3]: 810000 M⁻¹ s⁻¹

B13: D03 Fab (Fab, V domains shown)
VH: B1 VH with Y32H, I50Y
VL: B1 VL with Y32A, W94Y
notes: also called clone D03
- Kd [3]: 0.407 nM
- koff [3]: 0.000603 s⁻¹
- kon [3]: 1.48e+06 M⁻¹ s⁻¹

B14: B02 antibody (antibody, V domains shown)
VH: B1 VH with Y32T, I50Y, G101N
VL: B1 VL with W94Y
notes: Whole antibody
- IC50 [4]: 0.386 µg/mL
- IC50 [5]: 0.115 µg/mL
- Inhibition of Phosphorylation IC50 [2]: 0.0135 µg/mL

B15: E01 antibody (antibody, V domains shown)
VH: B1 VH
VL: B1 VL with W94Y
notes: Whole antibody
- IC50 [4]: 0.388 µg/mL
- IC50 [5]: 0.141 µg/mL
- Inhibition of Phosphorylation IC50 [2]: 0.0064 µg/mL

Further lines, results first:

- Inhibition of Phosphorylation IC50 [2]: 0.0065 µg/mL
B2: C10 antibody (antibody, V domains shown)
VH: B1 VH with Y32A, F53A
VL: B1 VL with W94Y

- Kd [3]: 1.13 nM
- koff [3]: 0.000799 s⁻¹
- kon [3]: 705000 M⁻¹ s⁻¹
B4: B09 Fab (Fab, V domains shown)
VH: B1 VH with Y32H, W52A, F53G, G55A, S57T
VL: B1 VL with W94Y

- IC50 [4]: 0.452 µg/mL
- IC50 [5]: 0.157 µg/mL
- Inhibition of Phosphorylation IC50 [2]: 0.0211 µg/mL
B6: H11 antibody (antibody, V domains shown)
VH: B1 VH with I50T, F53H
VL: B1 VL with Y32A, S92G, W94Y
notes: Whole antibody

- IC50 [4]: 0.395 µg/mL
- IC50 [5]: 0.176 µg/mL
- Inhibition of Phosphorylation IC50 [2]: 0.0162 µg/mL
B7: B10 antibody (antibody, V domains shown)
VH: B1 VH with I50T
VL: B1 VL with W94Y
notes: Whole antibody

- Kd [3]: 0.418 nM
- koff [3]: 0.000744 s⁻¹
- kon [3]: 1.78e+06 M⁻¹ s⁻¹
B9: H11 Fab (Fab, V domains shown)
VH: B1 VH with I50T, F53H
VL: B1 VL with Y32A, S92G, W94Y

- IC50 [4]: 0.351 µg/mL
- IC50 [5]: 0.158 µg/mL
- Inhibition of Phosphorylation IC50 [2]: 0.0115 µg/mL
B12: A11 antibody (antibody, V domains shown)
VH: B1 VH with I50Y
VL: B1 VL with W94Y
notes: Whole antibody

- Kd [3]: 0.849 nM
- koff [3]: 0.00076 s⁻¹
- kon [3]: 895000 M⁻¹ s⁻¹
B16: A11 Fab (Fab, V domains shown)
VH: B1 VH with I50Y
VL: B1 VL with W94Y

- Kd [3]: 0.447 nM
- koff [3]: 0.000485 s⁻¹
- kon [3]: 1.08e+06 M⁻¹ s⁻¹
B17: C10 Fab (Fab, V domains shown)
VH: B1 VH with Y32A, F53A
VL: B1 VL with W94Y

- IC50 [4]: 0.337 µg/mL
- IC50 [5]: 0.153 µg/mL
- Inhibition of Phosphorylation IC50 [2]: 0.0083 µg/mL
B18: B09 antibody (antibody, V domains shown)
VH: B1 VH with Y32H, W52A, F53G, G55A, S57T
VL: B1 VL with W94Y
notes: Whole antibody

- Kd [3]: 0.898 nM
- koff [3]: 0.000826 s⁻¹
- kon [3]: 921000 M⁻¹ s⁻¹
B19: B10 Fab (Fab, V domains shown)
VH: B1 VH with I50T
VL: B1 VL with W94Y

- Inhibition of Phosphorylation IC50 [2]: 0.0067 µg/mL
B20: D10 antibody (antibody, V domains shown)
VH: B1 VH with W52N
VL: B1 VL with W94Y

Reference: patent publication US20230406942A1 (HORIZON THERAPEUTICS IRELAND DAC, published 2023)
